# According to publication PMC9080631:
# T1: alpha-methylacyl-CoA racemase (AMACR) (UniProt Q9UHK6 1-382)
# T1 sequence: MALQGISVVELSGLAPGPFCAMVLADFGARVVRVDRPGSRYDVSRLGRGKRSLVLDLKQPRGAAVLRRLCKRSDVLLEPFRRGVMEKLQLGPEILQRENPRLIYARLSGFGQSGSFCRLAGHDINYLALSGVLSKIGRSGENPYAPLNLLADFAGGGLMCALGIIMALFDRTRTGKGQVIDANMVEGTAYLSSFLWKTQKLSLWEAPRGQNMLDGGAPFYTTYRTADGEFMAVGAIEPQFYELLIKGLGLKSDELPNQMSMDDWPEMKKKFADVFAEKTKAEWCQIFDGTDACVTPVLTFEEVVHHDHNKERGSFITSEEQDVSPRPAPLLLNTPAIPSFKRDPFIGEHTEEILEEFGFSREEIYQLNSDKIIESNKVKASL
# B1: DC14 (dimeric truncated C14) (ssDNA)
# DNA: AACCAAATATCTACGCATCATTTTTCCTTTAACCAAATATCTACGCATCATTTTTCCTTT
# Target: T1, alpha-methylacyl-CoA racemase (AMACR)
# Test: ELAA
row,Binder,Kd [nM]
1,B1,66.6 ± 17
2,AACCAAATATCTACGCATCATTTTTCCTTT (ssDNA) [truncated C14 (N30)],150 ± 55.8
3,CTTTATGTGTCGGGATCAGATACACATCCG (ssDNA) [truncated A38 (N30)],813 ± 405
4,GTCGAACCGTAGGGGCTATCTGTTGTGGGC (ssDNA) [truncated B4 (N30)],869 ± 215
5,TGAACTACTTAGTTTTATCCACTTATCCTG (ssDNA) [truncated A24 (N30)],477 ± 170
6,AAAAATTTTTCCTTGTATGTCATTCTCTCA (ssDNA) [truncated B38 (N30)],173 ± 91.8
7,ACTTTTATCTCTCCTAACCTGTCCTGGGGT (ssDNA) [truncated C20 (N30)],206 ± 36.4
